Key:
Igf2bp1 (human) [1] = biological target: Igf2bp1 (human) (UniProt Q9NZI8); assay: competition; conditions: MST/EMSA: 10 mM Tris pH 7.5, 100 mM NaCl, 0.1 mM EDTA, IGEPAL, tRNA, heparin, 0.5-2 mM DTT, room temperature (MST protein in PBST mixed 1:1); FP: 10 mM Tris pH …
Igf2bp1 (human) [2] = assay: MST; conditions: MST/EMSA: 10 mM Tris pH 7.5, 100 mM NaCl, 0.1 mM EDTA, IGEPAL, tRNA, heparin, 0.5-2 mM DTT, room temperature (MST protein in PBST mixed 1:1), FP: 10 mM Tris pH …
Igf2bp1 KH34 (human) = assay: MST; conditions: MST/EMSA: 10 mM Tris pH 7.5, 100 mM NaCl, 0.1 mM EDTA, IGEPAL, tRNA, heparin, 0.5-2 mM DTT, room temperature (MST protein in PBST mixed 1:1); FP: 10 mM Tris pH …

Chain of Igf2bp1 (human) (UniProt Q9NZI8) (Q9NZI8 whole entry): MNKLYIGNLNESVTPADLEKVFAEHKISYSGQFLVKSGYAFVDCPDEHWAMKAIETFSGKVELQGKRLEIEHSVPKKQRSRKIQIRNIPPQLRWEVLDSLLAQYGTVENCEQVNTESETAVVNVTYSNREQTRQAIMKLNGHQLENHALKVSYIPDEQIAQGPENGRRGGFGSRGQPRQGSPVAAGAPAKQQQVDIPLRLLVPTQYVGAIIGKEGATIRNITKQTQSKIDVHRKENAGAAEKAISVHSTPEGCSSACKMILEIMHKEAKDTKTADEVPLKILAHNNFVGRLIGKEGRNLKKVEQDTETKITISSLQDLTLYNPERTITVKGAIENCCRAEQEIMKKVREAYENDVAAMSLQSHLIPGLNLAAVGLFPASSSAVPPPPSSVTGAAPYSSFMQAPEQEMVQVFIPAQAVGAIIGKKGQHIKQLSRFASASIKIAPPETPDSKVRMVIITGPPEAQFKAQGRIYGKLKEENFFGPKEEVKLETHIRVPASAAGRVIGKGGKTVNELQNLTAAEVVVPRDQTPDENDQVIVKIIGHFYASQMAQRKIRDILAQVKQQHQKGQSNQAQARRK

Substance | binding (Igf2bp1 (human) [1]) | Kd (Igf2bp1 (human) [2]; 50 uM 7773) [nM] | Kd (Igf2bp1 (human) [2]; 100 uM 7773) [nM] | Kd (Igf2bp1 (human) [2]) [nM] | Kd (Igf2bp1 (human) [2]; no compound) [nM] | Kd (Igf2bp1 KH34 (human)) [nM]
GGGUGAGGAGUACAGUGCAAUGAGGGACCAGUACAUGAGGACUGGGGAGGGCUUUCUUUGUGUAUUUGCCAUAAAUAAUACUAAAUCAUUUGAAGAUAUUCACCAUUAUAGAGAACAAAUUAAAAGAGUUAAGGACUCUGAAGAUGUACCUAUGGUCCUAGUAGGAAAUAAAUGUGAUUUGCCUUCUAGAACAGUAGACACAA [Kras 2 RNA] | binds more weakly |  |  |  |  | 
Kras 6 RNA |  | 63 | 120 | 20 | 56 | 200

Reference: paper PMC8794255, “Small molecule inhibitor of Igf2bp1 represses Kras and a pro-oncogenic phenotype in cancer cells” (RNA Biology, 2021)
